For orientation: Kd means a measure of binding affinity in units of concentration. A higher Kd goes with weaker binding.

Assay [1] deals with C3b (human) (UniProt P01024). In words: SPR; homemade HJEM7 chip (50% OH, 25% COOH, 25% propargyl), 144 RU C3b amine-coupled; FH (2 μM to 3.9 nM) or FH 19–20 (10 μM to 3.9 nM) flowed; Biacore T200, 25 °C, HBS-P pH 7.4; 1:1 steady-state model.
The target in assay [2] is C3b (human) (UniProt P01024). Put plainly: SPR; homemade HJEM7 chip, 143 RU C3b amine-coupled and 174 RU 3′-sialyllactose clicked on; FH (2 μM to 3.9 nM) or FH 19–20 (10 μM to 3.9 nM) flowed; Biacore T200, 25 °C, HBS-P pH 7.4; 1:1 steady-state model. In general terms: In SPR one partner is held on a chip, and binding of the other changes the refractive index at the surface.

For assay [3], the target named is C3b (human) (UniProt P01024). In words: AFM force-distance measurements; Cys-PspCN thiol-coupled to the SAM on the AFM probe tip, alone or with FH anchored to it; partner amine-coupled to the SAM on a gold wafer; PBS, laboratory at 22 °C; single (type 3) detachment events.
The target in assay [4] is PspCN-anchored FH (on the HJEM6 SPR chip) (human | Streptococcus pneumoniae) (UniProt P08603). In words: SPR; homemade HJEM6 chip, FH (54 RU) captured by clicked sumo-Cys-PspCN-azide (18 RU); C3b flowed (1 μM to 3.9 nM); 1:1 steady-state model.
Assay [5] concerns the target C3b (human) (UniProt P01024). Put plainly: SPR; C1 chip with immobilised C3b; cycles of a mixture of FB and FD, then C3, injected at 10 μl/min; Biacore T200, 25 °C, HBS-P pH 7.4 with 1 mM MgCl2.

Consider FH 19–20 (domain or fragment), for which the results for the Kd with C3b (human) [1] and in the assay with C3b (human) [2] were 350 nM and 2600 nM, respectively.
Take “PspCN-anchored FH (on the AFM probe tip) (from UniProt P08603 19-1231) (complex)”: in the assay with C3b (human) [3], the detachment force of single events fell in the range of 0.1 to 0.26 nN and the mean detachment force is 0.17 nN.
In the case of “C3b (from UniProt P01024 23-667; P01024 749-1663) (natural protein)”, the Kd in assay [4] worked out at 70 nM.
Consider factor B (natural protein), for which, in the assay with C3b (human) [5], the percent of C3b molecules binding FB was < 80%.

For the origin of these results see paper PMC6937562.
